Drawing on patent US20250163168, this text covers AC-SINS (wavelength of maximum absorbance relative to blank, nm) for two substances.

The series in a line: AC-SINS self-interaction assay; the antibody against itself (N = 2).

“negative control (polyreactivity assays)” registered an AC-SINS (wavelength of maximum absorbance relative to blank, nm) of 0 nm.
On to “positive control (polyreactivity assays)”, for which the AC-SINS (wavelength of maximum absorbance relative to blank, nm) was 23.5 nm.
